The chains are these.
B1: Zinc finger homeobox protein 4, residues 2183 to 2238; numbered along this chain, Q86UP3 (parent)
chain: SSRTRFTDYQLRVLQDFFDTNAYPKDDEIEQLSTVLNLPTRVIVVWFQNARQKARK

± gives the uncertainty stated by the source.

Variants of B1 are the subject of this data set. As to the kind of experiment: abundance fitness (aPCA) (normalised: wild type 0, dead -1); higher = more abundant; growth selection in yeast, the domain comes from the species named. The settings on record: Homo sapiens.
As for SSRTRFTDYQLRVLQDFFDTNAYPKDDEIEQLSTVLNLPTRVIVVWFQNFRQKARK, the abundance fitness was -0.054 ± 0.28. To SSRTRFTDYQLRVLQDFFDTNAYPKDDEIEQLSTVLNLPTRVIVVWFQNERQKARK belongs -0.116 ± 0.15; to SSRTRFTDYQLRVLQDFFDTNAYPKDDEIEQLSTVLNLPTRVIVVWFQNDRQKARK, -0.57 ± 0.41; to SSRTRFTDYQLRVLQDFFDTNAYPKDDEIEQLSTVLNLPTRVIVVWFQNCRQKARK, 0.045 ± 0.14. To SSRTRFTDYQLRVLQDFFDTNAYPKDDEIEQLSTVLNLPTRVIVVWFQNIRQKARK belongs -0.396 ± 0.41; to SSRTRFTDYQLRVLQDFFDTNAYPKDDEIEQLSTVLNLPTRVIVVWFQNHRQKARK, -0.394 ± 0.34. In the case of SSRTRFTDYQLRVLQDFFDTNAYPKDDEIEQLSTVLNLPTRVIVVWFKNARQKARK, the abundance fitness was -0.434 ± 0.23. Turning to SSRTRFTDYQLRVLQDFFDTNAYPKDDEIEQLSTVLNLPTRVIVVWFCNARQKARK, the abundance fitness was -0.051 ± 0.23. To SSRTRFTDYQLRVLQDFFDTNAYPKDDEIEQLSTVLNLPTRVIVVWFPNARQKARK belongs -1.11 ± 0.3; to SSRTRFTDYQLRVLQDFFDTNAYPKDDEIEQLSTVLNLPTRVIVVWFGNARQKARK, -0.177 ± 0.1. As for SSRTRFTDYQLRVLQDFFDTNAYPKDDEIEQLSTVLNLPTRVIVVWFRNARQKARK, the abundance fitness was -0.106 ± 0.1. With SSRTRFTDYQLRVLQDFFDTNAYPKDDEIEQLSTVLNLPTRVIVVWFINARQKARK, the abundance fitness is -0.281 ± 0.29. To SSRTRFTDYQLRVLQDFFDTNAYPKDDEIEQLSTVLNLPTRVIVVWFANARQKARK belongs 0.017 ± 0.19. To SSRTRFTDYQLRVLQDFFDTNAYPKDDEIEQLSTVLNLPTRVIVVWFLNARQKARK belongs -0.441 ± 0.2; to SSRTRFTDYQLRVLQDFFDTNAYPKDDEIEQLSTVLNLPTRVIVVWFHNARQKARK, -0.418 ± 0.26. The figure for SSRTRFTDYQLRVLQDFFDTNAYPKDDEIEQLSTVLNLPTRVIVVWFDNARQKARK is -0.021 ± 0.15; for SSRTRFTDYQLRVLQDFFDTNAYPKDDEIEQLSTVLNLPTRVIVVWFWNARQKARK it is -0.262 ± 0.18. As to SSRTRFTDYQLRVLQDFFDTNAYPKDDEIEQLSTVLNLPTRVIVVWFMNARQKARK, the abundance fitness is -0.278 ± 0.19. SSRTRFTDYQLRVLQDFFDTNAYPKDDEIEQLSTVLNLPTRVIVVWFVNARQKARK: the abundance fitness is -0.061 ± 0.17.

As for SSRTRFTDYQLRVLQDFFDTNAYPKDDEIEQLSTVLNLPTRVIVVWFNNARQKARK, the abundance fitness is -0.132 ± 0.18.

Turning to SSRTRFTDYQLRVLQDFFDTNAYPKDDEIEQLSTVLNLPTRVIVVWFSNARQKARK, the abundance fitness was -0.161 ± 0.12. The figure for SSRTRFTDYQLRVLQDFFDTNAYPKDDEIEQLSTVLNLPTRVIVVWFTNARQKARK is -0.082 ± 0.23. The figure for SSRTRFTDYQLRVLQDFFDTNAYPKDDEIEQLSTVLNLPTRVIVVWFENARQKARK is -0.134 ± 0.19; for SSRTRFTDYQLRVLQDFFDTNAYPKDDEIEQLSTVLNLPTRVIVVTFQNARQKARK it is -0.972 ± 0.48; for SSRTRFTDYQLRVLQDFFDTNAYPKDDEIEQLSTVLNLPTRVIVVPFQNARQKARK it is -0.656 ± 0.36. To SSRTRFTDYQLRVLQDFFDTNAYPKDDEIEQLSTVLNLPTRVIVVAFQNARQKARK belongs -0.669 ± 0.19; to SSRTRFTDYQLRVLQDFFDTNAYPKDDEIEQLSTVLNLPTRVIVVEFQNARQKARK, -0.396 ± 0.27; to SSRTRFTDYQLRVLQDFFDTNAYPKDDEIEQLSTVLNLPTRVIVVRFQNARQKARK, -0.344 ± 0.11. Consider SSRTRFTDYQLRVLQDFFDTNAYPKDDEIEQLSTVLNLPTRVIVVVFQNARQKARK, for which the abundance fitness is -0.803 ± 0.18.

With SSRTRFTDYQLRVLQDFFDTNAYPKDDEIEQLSTVLNLPTRVIVVLFQNARQKARK, the abundance fitness was -0.691 ± 0.17.

For the variant SSRTRFTDYQLRVLQDFFDTNAYPKDDEIEQLSTVLNLPTRVIVVCFQNARQKARK, the abundance fitness was -0.366 ± 0.21. The figure for SSRTRFTDYQLRVLQDFFDTNAYPKDDEIEQLSTVLNLPTRVIVVMFQNARQKARK is -0.864 ± 0.3; for SSRTRFTDYQLRVLQDFFDTNAYPKDDEIEQLSTVLNLPTRVIVVSFQNARQKARK it is -0.403 ± 0.17; for SSRTRFTDYQLRVLQDFFDTNAYPKDDEIEQLSTVLNLPTRVIVVGFQNARQKARK it is -0.559 ± 0.16.

With SSRTRFTDYQLRVLQDFFDTNAYPKDDEIEQLSTVLNLPTRVIVEWFQNARQKARK, the abundance fitness was -0.049 ± 0.19. The figure for SSRTRFTDYQLRVLQDFFDTNAYPKDDEIEQLSTVLNLPTRVIVYWFQNARQKARK is -0.149 ± 0.28; for SSRTRFTDYQLRVLQDFFDTNAYPKDDEIEQLSTVLNLPTRVIVLWFQNARQKARK it is 0.007 ± 0.1; for SSRTRFTDYQLRVLQDFFDTNAYPKDDEIEQLSTVLNLPTRVIVIWFQNARQKARK it is -0.175 ± 0.12.

In the case of SSRTRFTDYQLRVLQDFFDTNAYPKDDEIEQLSTVLNLPTRVIVQWFQNARQKARK, the abundance fitness is -0.242 ± 0.19. In the case of SSRTRFTDYQLRVLQDFFDTNAYPKDDEIEQLSTVLNLPTRVIVRWFQNARQKARK, the abundance fitness was -0.335 ± 0.11. To SSRTRFTDYQLRVLQDFFDTNAYPKDDEIEQLSTVLNLPTRVIVNWFQNARQKARK belongs -0.402 ± 0.44; to SSRTRFTDYQLRVLQDFFDTNAYPKDDEIEQLSTVLNLPTRVIVHWFQNARQKARK, -0.298 ± 0.34. On to SSRTRFTDYQLRVLQDFFDTNAYPKDDEIEQLSTVLNLPTRVIVAWFQNARQKARK, for which the abundance fitness was -0.09 ± 0.11. The figure for SSRTRFTDYQLRVLQDFFDTNAYPKDDEIEQLSTVLNLPTRVIVKWFQNARQKARK is -0.26 ± 0.16. To SSRTRFTDYQLRVLQDFFDTNAYPKDDEIEQLSTVLNLPTRVIVGWFQNARQKARK belongs 0.047 ± 0.1; to SSRTRFTDYQLRVLQDFFDTNAYPKDDEIEQLSTVLNLPTRVIVSWFQNARQKARK, 0.072 ± 0.15; to SSRTRFTDYQLRVLQDFFDTNAYPKDDEIEQLSTVLNLPTRVIVDWFQNARQKARK, 0.528 ± 0.19.

These data come from the Human Domainome abundance scans (Beltran et al. 2025).
